From patent publication US20160222130A1 (Astellas, published 2016)

Key:
Assay in all cases: ELISA; Tie2-Fc coated at 1 ug/mL; signal at 100 ng/mL antibody vs convergence value on the parent
Human Tie2 (1-452)r5-Fc = molecular target: T1, Human Tie2 (1-452)r5-Fc (human, UniProt Q02763 23-452)
T1 construct: range 1-452
Experimental: (§1) The next day, the immobilized solution was removed, and the plate was washed with a TBS-T solution, and incubated for 60 minutes by the addition of 50 μL of a Blocker™ Casein in TBS (Thermo Fisher Scientific Inc., 37532) to perform blocking. The resultant was washed with a TBS-T solution, and TIE-1-Igγ1-LALA, diluted with 0.05% Tween 20 (Nacalai Tesque Inc., 28353-85)—containing Blocker™ Casein in TBS from 0.03 ng/mL to 100 ng/mL through eight steps, was added thereto in the amount of 20 μL per well. The resultant was incubated at room temperature for 90 minutes and then washed with a TBS-T solution three times, and 20 μL of a biotin-labeled anti-human kappa light chain antibody, which had been diluted to 0.1 μg/mL with 0.05% Tween 20-containing Blocker™ Casein in TBS, was added thereto. The resultant was incubated at room temperature for 60 minutes and then washed with a TBS-T solution three times, and 20 μL of alkaline phosphatase-labeled streptavidin, which had been diluted to 0.1 μg/mL with 0.05% Tween 20-containing Blocker™ Casein in TBS, was added thereto. The resultant was incubated at room temperature for 60 minutes and then washed with a TBS-T solution three times, and 50 μL of Chemiluminescent Ultra Sensitive AP Microwell and/or Membrane Substrate (450 nm), which had been 5-fold diluted with 1 mM MgCl₂-containing 20 mM TBS (pH 9.8) as a substrate, was added thereto. The resultant was incubated at room temperature under light-shielding for 40 minutes, and then luminescent intensity thereof was measured with an EnVision™ multi-label counter. The EC₅₀ value of TIE-1-Igγ1-LALA with respect to the human Tie2 (1-452)-Fc chimeric protein and 23 mutant proteins thereof were calculated. The relative value of luminescent intensity of 100 ng/mL TIE-1-Igγ1-LALA as maximum concentration point with respect to human Tie2 (1-452)-Fc chimeric protein and 23 mutant proteins thereof when the convergence value of the sigmoid curve of TIE-1-Igγ1-LALA binding to the human Tie2 (1-452)-Fc chimeric protein which was taken as 100% was calculated (Table 8 and Table 9). Further, the EC₅₀ value and the convergence value were calculated by Sigmoid-Emax model non-linear regression analysis.

Human Tie2 (1-452)g2-Fc = molecular target: T2, Human Tie2 (1-452)g2-Fc (human, UniProt Q02763 23-452)
T2 construct: range 1-452
T2 sequence (Q02763 other isoform, or with tags, fused parts or gaps limits assumed, form in doubt): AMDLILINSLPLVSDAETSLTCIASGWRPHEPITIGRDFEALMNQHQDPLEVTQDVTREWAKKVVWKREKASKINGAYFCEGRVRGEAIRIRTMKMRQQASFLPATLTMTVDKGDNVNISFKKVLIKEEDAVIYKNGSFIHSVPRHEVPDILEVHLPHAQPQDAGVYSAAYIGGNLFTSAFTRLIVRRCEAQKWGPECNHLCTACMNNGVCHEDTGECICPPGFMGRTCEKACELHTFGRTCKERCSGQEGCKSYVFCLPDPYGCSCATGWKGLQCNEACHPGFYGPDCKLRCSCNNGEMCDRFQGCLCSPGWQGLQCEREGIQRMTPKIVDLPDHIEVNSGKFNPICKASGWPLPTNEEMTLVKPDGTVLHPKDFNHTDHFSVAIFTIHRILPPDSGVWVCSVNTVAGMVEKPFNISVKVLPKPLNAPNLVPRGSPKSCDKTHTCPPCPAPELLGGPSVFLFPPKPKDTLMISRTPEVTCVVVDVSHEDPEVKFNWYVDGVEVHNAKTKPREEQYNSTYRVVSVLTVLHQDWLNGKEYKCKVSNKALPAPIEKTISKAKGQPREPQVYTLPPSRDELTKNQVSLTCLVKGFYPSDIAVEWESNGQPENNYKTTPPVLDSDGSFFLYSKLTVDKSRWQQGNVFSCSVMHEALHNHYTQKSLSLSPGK
Experimental: as §1

Human Tie2 (1-452)g3-Fc = molecular target: T3, Human Tie2 (1-452)g3-Fc (human, UniProt Q02763 23-452)
T3 construct: range 1-452
T3 sequence (Q02763 other isoform, or with tags, fused parts or gaps limits assumed, form in doubt): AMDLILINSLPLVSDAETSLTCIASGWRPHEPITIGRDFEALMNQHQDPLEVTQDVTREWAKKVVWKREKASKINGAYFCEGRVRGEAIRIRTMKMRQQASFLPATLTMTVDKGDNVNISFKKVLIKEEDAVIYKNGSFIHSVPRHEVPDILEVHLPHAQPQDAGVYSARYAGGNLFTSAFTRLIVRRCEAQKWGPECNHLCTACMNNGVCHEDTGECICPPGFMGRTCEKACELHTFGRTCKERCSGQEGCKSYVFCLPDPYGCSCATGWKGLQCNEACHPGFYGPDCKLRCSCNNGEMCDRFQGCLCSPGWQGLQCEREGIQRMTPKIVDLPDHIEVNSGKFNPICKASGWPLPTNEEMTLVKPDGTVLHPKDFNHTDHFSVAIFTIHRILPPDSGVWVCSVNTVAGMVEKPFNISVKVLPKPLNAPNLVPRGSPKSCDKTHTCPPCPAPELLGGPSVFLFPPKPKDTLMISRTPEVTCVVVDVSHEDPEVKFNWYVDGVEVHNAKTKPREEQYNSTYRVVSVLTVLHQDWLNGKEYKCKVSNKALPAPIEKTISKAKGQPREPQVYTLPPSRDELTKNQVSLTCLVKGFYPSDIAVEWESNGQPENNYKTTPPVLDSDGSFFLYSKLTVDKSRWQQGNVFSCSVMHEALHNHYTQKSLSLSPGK
Experimental: as §1

Human Tie2 (1-452)m1-Fc = molecular target: T4, Human Tie2 (1-452)m1-Fc (human, UniProt Q02763 23-452)
T4 construct: range 1-452
Experimental: as §1

Human Tie2 (1-452)y1-Fc = molecular target: T5, Human Tie2 (1-452)y1-Fc (human, UniProt Q02763 23-452)
T5 construct: range 1-452
T5 sequence (Q02763 other isoform, or with tags, fused parts or gaps limits assumed, form in doubt): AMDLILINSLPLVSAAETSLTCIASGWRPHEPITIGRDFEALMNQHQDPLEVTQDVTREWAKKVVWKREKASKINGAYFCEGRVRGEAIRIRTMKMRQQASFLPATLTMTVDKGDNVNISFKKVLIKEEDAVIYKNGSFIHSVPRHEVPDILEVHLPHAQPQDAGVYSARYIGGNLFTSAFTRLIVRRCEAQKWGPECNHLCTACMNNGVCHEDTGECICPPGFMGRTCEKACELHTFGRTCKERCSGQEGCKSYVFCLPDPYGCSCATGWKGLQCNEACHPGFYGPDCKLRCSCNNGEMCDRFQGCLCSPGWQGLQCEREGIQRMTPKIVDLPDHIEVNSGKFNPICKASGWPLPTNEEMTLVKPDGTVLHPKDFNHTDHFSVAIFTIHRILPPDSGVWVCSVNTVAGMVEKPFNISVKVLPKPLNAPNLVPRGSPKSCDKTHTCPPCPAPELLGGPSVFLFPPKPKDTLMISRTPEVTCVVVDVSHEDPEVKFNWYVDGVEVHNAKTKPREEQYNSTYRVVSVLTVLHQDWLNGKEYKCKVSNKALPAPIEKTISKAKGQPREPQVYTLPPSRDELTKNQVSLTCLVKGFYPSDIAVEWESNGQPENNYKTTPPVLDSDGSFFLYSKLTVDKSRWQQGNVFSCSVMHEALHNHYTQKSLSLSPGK
Experimental: as §1

Human Tie2 (1-452)c1-Fc = molecular target: T6, Human Tie2 (1-452)c1-Fc (human, UniProt Q02763 23-452)
T6 construct: range 1-452
T6 sequence (Q02763 other isoform, or with tags, fused parts or gaps limits assumed, form in doubt): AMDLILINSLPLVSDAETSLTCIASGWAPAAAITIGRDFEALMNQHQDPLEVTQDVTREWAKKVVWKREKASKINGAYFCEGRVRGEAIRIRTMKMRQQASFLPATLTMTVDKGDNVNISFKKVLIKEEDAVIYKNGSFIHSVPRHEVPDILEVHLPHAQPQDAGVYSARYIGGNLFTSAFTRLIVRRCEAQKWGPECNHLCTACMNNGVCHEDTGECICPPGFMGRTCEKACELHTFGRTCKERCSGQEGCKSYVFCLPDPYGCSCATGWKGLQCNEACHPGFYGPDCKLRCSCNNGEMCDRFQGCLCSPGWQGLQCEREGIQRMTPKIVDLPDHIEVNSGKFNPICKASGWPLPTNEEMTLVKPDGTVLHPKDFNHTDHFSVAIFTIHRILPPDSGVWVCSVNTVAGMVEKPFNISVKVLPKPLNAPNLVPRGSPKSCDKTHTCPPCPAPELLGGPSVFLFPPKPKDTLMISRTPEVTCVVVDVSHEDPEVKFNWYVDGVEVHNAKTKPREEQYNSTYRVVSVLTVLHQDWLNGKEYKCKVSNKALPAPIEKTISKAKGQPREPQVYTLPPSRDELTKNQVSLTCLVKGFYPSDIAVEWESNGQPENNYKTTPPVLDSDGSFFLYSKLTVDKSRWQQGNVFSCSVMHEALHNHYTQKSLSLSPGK
Experimental: as §1

Human Tie2 (1-452)r1-Fc = molecular target: T7, Human Tie2 (1-452)r1-Fc (human, UniProt Q02763 23-452)
T7 construct: range 1-452
T7 sequence (Q02763 other isoform, or with tags, fused parts or gaps limits assumed, form in doubt): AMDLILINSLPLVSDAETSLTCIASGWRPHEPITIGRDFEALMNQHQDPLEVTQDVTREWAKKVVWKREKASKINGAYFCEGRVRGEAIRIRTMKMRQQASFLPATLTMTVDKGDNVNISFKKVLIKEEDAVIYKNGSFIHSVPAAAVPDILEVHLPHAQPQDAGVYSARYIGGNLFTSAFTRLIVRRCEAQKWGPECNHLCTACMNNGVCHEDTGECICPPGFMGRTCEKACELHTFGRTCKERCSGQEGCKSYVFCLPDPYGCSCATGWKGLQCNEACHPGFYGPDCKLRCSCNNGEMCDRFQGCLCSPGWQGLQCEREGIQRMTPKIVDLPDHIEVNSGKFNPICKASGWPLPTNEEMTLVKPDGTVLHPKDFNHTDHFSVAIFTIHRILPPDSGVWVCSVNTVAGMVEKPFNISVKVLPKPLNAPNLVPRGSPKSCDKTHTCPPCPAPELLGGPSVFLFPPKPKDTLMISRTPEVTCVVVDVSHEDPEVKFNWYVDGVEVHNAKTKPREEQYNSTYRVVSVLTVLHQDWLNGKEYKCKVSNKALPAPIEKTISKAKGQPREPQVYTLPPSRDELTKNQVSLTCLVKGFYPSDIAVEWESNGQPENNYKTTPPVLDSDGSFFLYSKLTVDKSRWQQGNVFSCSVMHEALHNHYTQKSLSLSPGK
Experimental: as §1

T1 sequence (Q02763 other isoform, or with tags, fused parts or gaps limits assumed, form in doubt): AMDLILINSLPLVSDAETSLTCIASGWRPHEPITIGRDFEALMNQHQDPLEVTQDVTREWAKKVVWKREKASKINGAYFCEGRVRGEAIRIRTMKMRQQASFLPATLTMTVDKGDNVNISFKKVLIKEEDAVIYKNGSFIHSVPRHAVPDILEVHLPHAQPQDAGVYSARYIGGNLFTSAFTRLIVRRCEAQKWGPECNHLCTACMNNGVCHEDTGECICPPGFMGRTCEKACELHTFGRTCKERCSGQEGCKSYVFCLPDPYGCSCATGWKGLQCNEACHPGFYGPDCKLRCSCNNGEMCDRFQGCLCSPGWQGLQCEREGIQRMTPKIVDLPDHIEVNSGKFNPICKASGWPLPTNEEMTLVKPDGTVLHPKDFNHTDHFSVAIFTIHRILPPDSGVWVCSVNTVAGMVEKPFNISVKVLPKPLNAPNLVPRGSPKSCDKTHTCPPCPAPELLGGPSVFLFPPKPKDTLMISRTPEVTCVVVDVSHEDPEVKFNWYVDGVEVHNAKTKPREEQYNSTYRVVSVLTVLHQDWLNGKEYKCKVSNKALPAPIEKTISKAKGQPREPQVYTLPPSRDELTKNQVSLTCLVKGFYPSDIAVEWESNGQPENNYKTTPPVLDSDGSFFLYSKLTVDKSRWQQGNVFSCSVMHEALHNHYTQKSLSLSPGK

Relative value (%) of luminescent intensity (Human Tie2 (1-452)r5-Fc): 102% | Relative value (%) of luminescent intensity (Human Tie2 (1-452)g2-Fc): 72% | Relative value (%) of luminescent intensity (Human Tie2 (1-452)g3-Fc): 96% | Relative value (%) of luminescent intensity (Human Tie2 (1-452)m1-Fc): 104% | Relative value (%) of luminescent intensity (Human Tie2 (1-452)y1-Fc): 109% | Relative value (%) of luminescent intensity (Human Tie2 (1-452)c1-Fc): 104% | Relative value (%) of luminescent intensity (Human Tie2 (1-452)r1-Fc): 97%
B1: TIE-1-Igγ1-LALA (antibody, human IgG1, kappa, L234A L235A)
heavy: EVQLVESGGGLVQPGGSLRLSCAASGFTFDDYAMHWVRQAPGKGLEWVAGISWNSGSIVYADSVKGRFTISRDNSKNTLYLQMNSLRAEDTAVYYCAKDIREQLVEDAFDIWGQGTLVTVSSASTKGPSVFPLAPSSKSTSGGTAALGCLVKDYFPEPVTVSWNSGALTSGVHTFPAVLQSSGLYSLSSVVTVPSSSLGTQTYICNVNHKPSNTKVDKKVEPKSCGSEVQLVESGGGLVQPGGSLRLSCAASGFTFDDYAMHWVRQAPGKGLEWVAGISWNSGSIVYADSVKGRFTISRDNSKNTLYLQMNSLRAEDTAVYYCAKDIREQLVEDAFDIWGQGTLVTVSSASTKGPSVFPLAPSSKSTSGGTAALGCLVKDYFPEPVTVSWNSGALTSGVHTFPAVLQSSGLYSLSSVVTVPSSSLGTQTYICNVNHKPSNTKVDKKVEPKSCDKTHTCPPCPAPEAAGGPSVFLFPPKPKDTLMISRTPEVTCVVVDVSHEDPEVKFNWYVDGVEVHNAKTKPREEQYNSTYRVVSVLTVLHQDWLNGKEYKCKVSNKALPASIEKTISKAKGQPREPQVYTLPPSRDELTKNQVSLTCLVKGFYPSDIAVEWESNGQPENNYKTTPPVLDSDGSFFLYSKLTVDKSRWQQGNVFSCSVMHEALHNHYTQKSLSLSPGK
light: DIQMTQSPSSLSASVGDRVTITCRSSQSLLHSHRYNYLDWYQQKPGKAPKLLIYLGSNRASGVPSRFSGSGSGTDFTLTISSVQPEDFATYYCMQTLQTPLTFGQGTKVEIKRTVAAPSVFIFPPSDEQLKSGTASVVCLLNNFYPREAKVQWKVDNALQSGNSQESVTEQDSKDSTYSLSSTLTLSKADYEKHKVYACEVTHQGLSSPVTKSFNRGEC
notes: Tandem tetravalent format: two heavy chains (VH-CH1-linker-VH-CH1-CH2-CH3) and four light chains; also called tetravalent anti-human Tie2 antibody with L234A, L235A and P331S
